Source: patent US7629437

Sequence of Recombinant human βI tryptase (chain, as listed by the source): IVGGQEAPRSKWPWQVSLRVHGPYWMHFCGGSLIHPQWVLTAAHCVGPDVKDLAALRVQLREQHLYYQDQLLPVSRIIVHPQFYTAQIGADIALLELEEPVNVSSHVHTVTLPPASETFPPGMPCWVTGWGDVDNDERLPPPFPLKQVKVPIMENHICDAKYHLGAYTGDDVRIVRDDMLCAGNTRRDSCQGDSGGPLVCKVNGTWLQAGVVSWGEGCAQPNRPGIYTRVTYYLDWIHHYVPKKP

## Human thrombin
Ac-Leu-Gly-Pro-Lys-AMC
  Km: 160 µM
  kcat: 2.3 s⁻¹
  kcat/Km: 15000 M⁻¹ s⁻¹
Ac-Nle-Thr-Pro-Lys-AMC
  Km: 115 µM
  kcat: 31 s⁻¹
  kcat/Km: 260000 M⁻¹ s⁻¹
Ac-Nle-Thr-Pro-Lys-ACC
  Km: 125 µM
  kcat: 33.7 s⁻¹
  kcat/Km: 280000 M⁻¹ s⁻¹
Ac-Leu-Gly-Pro-Lys-ACC
  Km: 195 µM
  kcat: 3.2 s⁻¹
  kcat/Km: 18000 M⁻¹ s⁻¹

## Recombinant human βI tryptase
Ac-PRNK-ACC
  Km: 8.9 µM
  kcat: 16.8 s⁻¹
  kcat/Km: 1.89e+06 M⁻¹ s⁻¹
  preference (kcat/Km) over Ac-PRTK-ACC: A minimal preference, approximately two-fold, for P2-asparagine over P2-threonine
Ac-PRTK-ACC
  Km: 14.7 µM
  kcat: 18.7 s⁻¹
  kcat/Km: 1.27e+06 M⁻¹ s⁻¹
Ac-PRNR-ACC
  Km: 16.5 µM
  kcat: 21.8 s⁻¹
  kcat/Km: 1.31e+06 M⁻¹ s⁻¹
Ac-PANK-ACC
  Km: 110 µM
  kcat: 20.3 s⁻¹
  kcat/Km: 180000 M⁻¹ s⁻¹

## Recombinant human βII tryptase
Ac-PRNK-ACC
  Km: 14.5 µM
  kcat: 17.8 s⁻¹
  kcat/Km: 1.23e+06 M⁻¹ s⁻¹
  preference (kcat/Km) over Ac-PRTK-ACC: A minimal preference, approximately two-fold, for P2-asparagine over P2-threonine
Ac-PRTK-ACC
  Km: 23.4 µM
  kcat: 18.3 s⁻¹
  kcat/Km: 780000 M⁻¹ s⁻¹
Ac-PRNR-ACC
  Km: 18.6 µM
  kcat: 20.9 s⁻¹
  kcat/Km: 1.12e+06 M⁻¹ s⁻¹
Ac-PANK-ACC
  Km: 133 µM
  kcat: 19.1 s⁻¹
  kcat/Km: 140000 M⁻¹ s⁻¹
